Biological target: Kv1.3 of rat L6 skeletal muscle cells (rat) (UniProt P15384)
Assay: cell-based or functional assay

Kv1.3 of rat L6 skeletal muscle cells (rat), sequence (P15384 whole entry): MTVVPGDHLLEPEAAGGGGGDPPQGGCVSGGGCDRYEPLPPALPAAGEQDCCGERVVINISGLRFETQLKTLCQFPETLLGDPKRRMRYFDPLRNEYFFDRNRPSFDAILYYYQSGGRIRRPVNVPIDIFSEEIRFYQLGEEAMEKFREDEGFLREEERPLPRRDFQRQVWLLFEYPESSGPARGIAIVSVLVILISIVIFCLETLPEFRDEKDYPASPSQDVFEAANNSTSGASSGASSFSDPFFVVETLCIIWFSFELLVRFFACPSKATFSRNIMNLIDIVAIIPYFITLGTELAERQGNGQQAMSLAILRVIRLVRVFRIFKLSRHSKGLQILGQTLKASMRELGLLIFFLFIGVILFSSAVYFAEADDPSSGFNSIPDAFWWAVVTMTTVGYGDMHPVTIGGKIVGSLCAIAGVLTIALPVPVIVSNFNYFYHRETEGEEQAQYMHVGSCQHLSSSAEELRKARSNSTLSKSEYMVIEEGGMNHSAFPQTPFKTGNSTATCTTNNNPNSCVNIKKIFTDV

In the case of “margatoxin (from UniProt P40755 1-39) (peptide)”, the concentration necessary for 1/2 maximal increase in glucose uptake (L6 cells) is reported as 53 nM.

Source: patent publication US20030032595A1
